Measured values: patent EP4674868A1 (Jiangsu Hengrui Pharmaceuticals Co., Ltd., dated 2026)
Like-named read-outs stand apart in the source and are kept apart here. Each block holds one binder with its values, some of them ahead of it.

Columns and labels:
[1] = molecular target: T1, human CD40 on the surface of HEK293 cells (HEK293-HuCD40) (human, UniProt P25942 21-277); test: cell-based or functional assay
[2] = molecular target: T1, human CD40 on the surface of HEK293 …; test: FACS, HEK293 cells transiently expressing human CD40
[3] = molecular target: T2, human 4-1BB on the surface of HEK293 cells (HEK293-Hu4-1BB) (human, UniProt Q07011 24-255); test: FACS, HEK293-Hu4-1BB cells
T2 construct: whole, on cells; also called CD137; cell strain highly expressing human 4-1BB

[4] = molecular target: T1, human CD40 on the surface of HEK293 …; test: cell-based or functional assay; remark: listed apart in the source
[5] = molecular target: T1, human CD40 on the surface of HEK293 …; test: FACS, HEK293-HuCD40 cells
[6] = molecular target: T1, human CD40 on the surface of HEK293 …; test: FACS, HEK293-HuCD40 cells; remark: listed apart in the source
[7] = molecular target: T1, human CD40 on the surface of HEK293 …; test: FACS, HEK293-HuCD40 cells; remark: listed apart in the source
[8] = molecular target: T2, human 4-1BB on the surface of HEK293 …; test: cell-based or functional assay
[9] = molecular target: T3, human FAP on the surface of CHO-K1 cells (CHO-K1-HuFAP) (human, UniProt Q12884 1-760); test: FACS, CHO-K1-HuFAP cells
T3 construct: whole, on cells; also called CHO cell line overexpressing human FAP; FAP on the surface of CHO-K1-HuFAP cells

[10] = molecular target: T1, human CD40 on the surface of HEK293 …; test: cell-based or functional assay; remark: listed apart in the source
[11] = molecular target: T3, human FAP on the surface of CHO-K1 …; test: FACS, CHO-K1-HuFAP cells; remark: listed apart in the source
[12] = molecular target: T3, human FAP on the surface of CHO-K1 …; test: FACS, CHO-K1-HuFAP cells; remark: listed apart in the source
[13] = molecular target: T2, human 4-1BB on the surface of HEK293 …; test: cell-based or functional assay; remark: listed apart in the source
[14] = molecular target: T2, human 4-1BB on the surface of HEK293 …; test: FACS, HEK293-Hu4-1BB cells; remark: listed apart in the source
[15] = molecular target: T2, human 4-1BB on the surface of HEK293 …; test: cell-based or functional assay; remark: listed apart in the source
[16] = molecular target: T2, human 4-1BB on the surface of HEK293 …; test: FACS, HEK293-Hu4-1BB cells; remark: listed apart in the source
[17] = molecular target: T4, h-FAP-His (recombinant human fibroblast activation protein, Leu26-Asp760, His-tagged) (human, UniProt Q12884 26-760); test: ELISA, plate coated with human FAP-His
T4 construct: range 26-760; Bought protein with a His tag; also called human FAP-His protein; His-tagged FAP recombinant protein

[18] = molecular target: T3, human FAP on the surface of CHO-K1 …; test: FACS, CHO cell line overexpressing human FAP
[19] = molecular target: T4, h-FAP-His (recombinant human fibroblast …); test: SPR, antibody captured by anti-human IgG (Fc) on CM5 chip, h-FAP-His as analyte

FcγRIIb-mediated activation of HEK-Blue CD40L cells, EC50 [1]: 0.243 nM
EC50 [2]: 1.12 nM
B1: anti-CD40 nanobody A297 linked to human IgG1-Fc (C220A, S267E, L328F) (Fc fusion)
chain: QVQLVESGGGMVEPGGSLRLSCAASGFTFSRYGMKWVRQAPGKGPEWVSTINSHGDTTYYADSVKGRFTISRDNAQNTVYLQMNSLKPEDTALYYCLRIDYSDYSSRGQGTQVTVSSEPKSADKTHTCPPCPAPELLGGPSVFLFPPKPKDTLMISRTPEVTCVVVDVEHEDPEVKFNWYVDGVEVHNAKTKPREEQYNSTYRVVSVLTVLHQDWLNGKEYKCKVSSKAFPAPIEKTISKAKGQPREPQVYTLPPSRDELTKNQVSLTCLVKGFYPSDIAVEWESNGQPENNYKTTPPVLDSDGSFFLYSKLTVDKSRWQQGNVFSCSVMHEALHNHYTQKSLSLSPGK
notes: VHH-Fc; no linker between VHH and Fc is stated

FcγRIIb-mediated activation of HEK-Blue CD40L cells, EC50 [1]: 0.006 nM
EC50 [2]: 1.25 nM
B2: humanized anti-CD40 nanobody A297V3 linked to human IgG1-Fc (C220A, S267E, L328F) (Fc fusion)
chain: EVQLVESGGGLVQPGGSLRLSCAASGFTFSRYGMKWVRQAPGKGLEWVSTINSHGDTTYYADSVKGRFTISRDNAKNSLYLQMNSLRAEDTAVYYCLRIDYSDYSSRGQGTLVTVSSEPKSADKTHTCPPCPAPELLGGPSVFLFPPKPKDTLMISRTPEVTCVVVDVEHEDPEVKFNWYVDGVEVHNAKTKPREEQYNSTYRVVSVLTVLHQDWLNGKEYKCKVSSKAFPAPIEKTISKAKGQPREPQVYTLPPSRDELTKNQVSLTCLVKGFYPSDIAVEWESNGQPENNYKTTPPVLDSDGSFFLYSKLTVDKSRWQQGNVFSCSVMHEALHNHYTQKSLSLSPGK
notes: VHH-Fc

EC50 [3]: 0.67 nM
Maximum fluorescence value [3]: 8200
CD40/NF-κB reporter (HEK-Blue CD40L), 4-1BB-crosslinked, Fold change in Emax [4]: 1 fold
CD40/NF-κB reporter (HEK-Blue CD40L), FAP-crosslinked, Fold change in Emax [4]: 1 fold
CD40/NF-κB reporter (HEK-Blue CD40L), uncrosslinked, Fold change in Emax [4]: 0.98 fold
Maximum fluorescence value [5]: 2330
Maximum fluorescence value [6]: 106
Maximum fluorescence value [7]: 89
4-1BB/NF-κB luciferase reporter, CD40-crosslinked, Fold change in Emax [8]: 2.3 fold
4-1BB/NF-κB luciferase reporter, FAP-crosslinked, EC50 [8]: 0.04 nM
4-1BB/NF-κB luciferase reporter, FAP-crosslinked, Fold change in Emax [8]: 9.95 fold
4-1BB/NF-κB luciferase reporter, uncrosslinked, Fold change in Emax [8]: 5.97 fold
EC50 [9]: 2.48 nM
Maximum fluorescence value [9]: 44200
CD40/NF-κB reporter (HEK-Blue CD40L), 4-1BB-crosslinked, Fold change in Emax [10]: 1 fold
CD40/NF-κB reporter (HEK-Blue CD40L), FAP-crosslinked, Fold change in Emax [10]: 1 fold
CD40/NF-κB reporter (HEK-Blue CD40L), uncrosslinked, Fold change in Emax [10]: 0.99 fold
EC50 [11]: 1.33 nM
Maximum fluorescence value [11]: 48400
EC50 [12]: 1.92 nM
Maximum fluorescence value [12]: 112000
4-1BB/NF-κB luciferase reporter, CD40-crosslinked, Fold change in Emax [13]: 1.22 fold
4-1BB/NF-κB luciferase reporter, FAP-crosslinked, EC50 [13]: 0.032 nM
4-1BB/NF-κB luciferase reporter, FAP-crosslinked, Fold change in Emax [13]: 9.38 fold
4-1BB/NF-κB luciferase reporter, uncrosslinked, Fold change in Emax [13]: 3.6 fold
Maximum fluorescence value [14]: 10800
4-1BB/NF-κB luciferase reporter, CD40-crosslinked, Fold change in Emax [15]: 1.77 fold
4-1BB/NF-κB luciferase reporter, FAP-crosslinked, EC50 [15]: 0.04 nM
4-1BB/NF-κB luciferase reporter, FAP-crosslinked, Fold change in Emax [15]: 15.4 fold
4-1BB/NF-κB luciferase reporter, uncrosslinked, Fold change in Emax [15]: 6.03 fold
EC50 [16]: 0.573 nM
Maximum fluorescence value [16]: 8440
B3: RO7122290 (FAP/4-1BBL bispecific antibody molecule, control) (bispecific antibody, human IgG1, kappa, L234A L235A)
heavy 1: not shown
heavy 2: EVQLLESGGGLVQPGGSLRLSCAASGFTFSSYAMSWVRQAPGKGLEWVSAIIGSGASTYYADSVKGRFTISRDNSKNTLYLQMNSLRAEDTAVYYCAKGWFGGFNYWGQGTLVTVSSASTKGPSVFPLAPSSKSTSGGTAALGCLVKDYFPEPVTVSWNSGALTSGVHTFPAVLQSSGLYSLSSVVTVPSSSLGTQTYICNVNHKPSNTKVDKKVEPKSCDKTHTCPPCPAPEAAGGPSVFLFPPKPKDTLMISRTPEVTCVVVDVSHEDPEVKFNWYVDGVEVHNAKTKPREEQYNSTYRVVSVLTVLHQDWLNGKEYKCKVSNKALGAPIEKTISKAKGQPREPQVCTLPPSRDELTKNQVSLSCAVKGFYPSDIAVEWESNGQPENNYKTTPPVLDSDGSFFLVSKLTVDKSRWQQGNVFSCSVMHEALHNHYTQKSLSLSPGK
light 1: not shown
light 2: EIVLTQSPGTLSLSPGERATLSCRASQSVTSSYLAWYQQKPGQAPRLLINVGSRRATGIPDRFSGSGSGTDFTLTISRLEPEDFAVYYCQQGIMLPPTFGQGTKVEIKRTVAAPSVFIFPPSDEQLKSGTASVVCLLNNFYPREAKVQWKVDNALQSGNSQESVTEQDSKDSTYSLSSTLTLSKADYEKHKVYACEVTHQGLSSPVTKSFNRGEC

EC50 [17]: 92 µg/mL
EC50 [18]: 0.000432 µg/mL
Kd [19]: 0.245 nM
Ratio of KD of 28H1 to KD of test antibody [19]: 5.3
Ratio of Kd of 28H1 to Kd of test antibody [19]: 3.5
koff [19]: 7.28e-05 s⁻¹
kon [19]: 297000 M⁻¹ s⁻¹
B4: anti-human FAP monoclonal antibody Ab10 (antibody, human IgG1, kappa, L234A L235A, V domains shown)
VH: QVQLQQSGVEVKKPGASVTVSCRASGYSFADHFIHWVRQAPGQGFQWMGWINPNRGVTHHAQDFQGRVAMTRDMSTDTVYMELTSLRSDDTAVYYCARDASLTARPYYFYGFDVWGQGTLVTVSS
VL: DIQMTQSPSSVSASVGDRVTITCRASQGISSWLAWYQQKPGKAPKLLIYAASSLQSGVPSRFSGSGSGTDFTLTISSLQPEDFATYYCQQANSFPPAFGQGTKVEIKR
notes: Full-length heavy and light chains with human constant regions; also called anti-FAP antibody Ab10
